Patent publication US20110045489A1, “Polymerases for Incorporating Modified Nucleotides” (NEW ENGLAND BIOLABS, INC., priority 2008, published 2011)

Assays:
3′-O-azidomethyl-dCTP = experiment: Titration assay, incorporation of 3′-O-azidomethyl-dCTP; format: biochemical; settings: for 3′-O-azidomethyl-dCTP incorporation / termination of synthesis / relative 3′-O-azidomethyl-dCTP incorporation efficiency, rank order: 10:1 or 1:1 3′-O-azidomethyl-dCTP:dNTP, 30 minutes; for 3′-O-azidomethyl-dCTP incorporation / termination of synthesis: 72° C. (9° N) or 37° C.; for relative 3′-O-azidomethyl-dCTP incorporation efficiency, rank order: 72° C. or 37° C., FIG. 8; for effect of the mutations on 3′-O-azidomethyl-dCTP incorporation: versus parent exo- polymerase
Method: Reactions were also performed in the absence of terminators to ensure that synthesis by each DNA polymerase was sufficient to extend primers without premature termination (“dNTP” lanes). Reactions with Therminator™ (NEB, Inc., Ipswich, Mass.) and 9° N exo-L408P/Y409A/S411T DNA polymerase (SEQ ID NO:6) were incubated at 72° C. for 30 minutes. Reactions with E. coli Polymerase I (pol I) (NEB, Inc., Ipswich, Mass.), Sequenase™, (USB, Inc., Cleveland, Ohio), Mma exo- and Mma exo-L417P/Y418A/S420T were incubated at 37° C. for 30 minutes. Each band corresponds to a DNA fragment terminated by a 3′-azido-dCMP. Using a titration assay as described in Gardner and Jack (2002), the relative 3′-azido-dCTP incorporation efficiency was determined for a series of DNA polymerases.
Incorporation of 3′-O-azidomethyl-dCTP by various DNA polymerases was measured using the titration assay as described in Example 1. For each reaction, a ratio of either 10:1 or 1:1 3′-O-azidomethyl-dCTP:dNTP was used to generate a termination pattern. Each band corresponded to a DNA fragment terminated by a 3′-azido-dCMP. A control reaction lacking terminator (dNTP) which yielded large extension products gave assurance that the DNA polymerase was active, and that termination products resulted from terminator incorporation rather than incomplete polymerization. Reactions with Therminator™ (NEB, Inc., Ipswich, Mass.) and 9° N exo-L408P/Y409A/S411T DNA polymerase were incubated at 72° C. for 30 minutes. Reactions with E. coli Polymerase I (pol I) (NEB, Inc., Ipswich, Mass.), Sequenase™ (USB, Inc., Cleveland, Ohio), Mma exo- and Mma exo-L417P/Y418A/S420T were conducted at 37° C. for 30 mintues. Therminator™ (NEB, Inc., Ipswich, Mass.) DNA polymerase was assayed with a 1:1 ratio of acyCTP as control.

modified nucleotide = experiment: Screen of DNA polymerase mutants for modified nucleotide incorporation; format: biochemical
Method in brief: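 Purified 9° N exo- DNA polymerase mutants from a library screened for 3′-modified terminator (3′-azido-ddCTP, 3′-amino-ddCTP) incorporation by chain-terminator titration. Efficiency judged from reaction product size; relative efficiency from amount of terminator needed to give the same product spectrum.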

Molecule | 3′-O-azidomethyl-dCTP incorporation / termination of synthesis (3′-O-azidomethyl-dCTP) | relative 3′-O-azidomethyl-dCTP incorporation efficiency, rank order (3′-O-azidomethyl-dCTP) | increase of modified nucleotide incorporation (modified nucleotide) | effect of the mutations on 3′-O-azidomethyl-dCTP incorporation (3′-O-azidomethyl-dCTP)
E. coli DNA polymerase I (pol I): commercial E. coli DNA polymerase I (NEB, Inc.) [reference compound] | failed to terminate synthesis | – | – | –
Mma exo-: exonuclease minus DNA polymerase from Methanococcus maripaludis, SEQ ID NO:22 (protein, listed as Methanococcus maripaludis, (1)..(784) Exo-) MESLIDLDYNSDDLCIYLYLINSIIKEKDFKPYFYVNSTDKEQILEFLKDYEKKHKLDSEISKMIENIETVKKIVFDENYQEKELSKVTVKYPNNVKTVREILMEFERLYEYDIPFVRRYLIDNSVIPTSTWDFENNKKIDNKIPDFKTVSFAIAVYCNKEPNPKKDPIIMASFSSKDFNTVVSTKKFDHEKLEYVKDEKELIKRIIEILKEYDIIYTYNGDNFDFPYLKKRAESFGLELKLGKNDEKIKITKGGMNSKSYIPGRVHIDLYPIARRLLNLTKYRLENVTEALFDVKKVDVGHENIPKMWDNLDETLVEYSHQDAYYTQRIGEQFLPLEIMFSRVVNQSLYDINRMSSSQMVEYLLLKNSYKMGVIAPNRPSGKEYQKRIRSSYEGGYVKEPLKGIHEDIVSMDFLSLYPSIIMSHNLSPETIDCTCCSDEENGENEEILGHKFCKKSIGIIPKTLMDLINRRKKVKKVLREKAEKGEFDEEYQILDYEQRSIKVLANSHYGYLAFPMARWYSRDCAEITTHLGRQYIQKTIEEAENFGFKVIYADTDGFYSKWADDKEKLSKYELLEKTREFLKNINNTLPGEMELEFEGYFKRGIFVTKKKYALIDENEKITVKGLEVVRRDWSNVSKNTQKNVLNALLKEGSVENAKKVIQDTIKELKDGKVNNEDLLIHTQLTKRIEDYKTTAPHVEVAKKILKSGNRVNTGDVISYIITSGNKSISERAEILENAKNYDTNYYIENQILPPVIRLMEALGITKDELKDSKKQYTLHHFLK | failed to terminate synthesis | greater than Sequenase™ | – | –
Mma exo-L417P/Y418A/S420T: exonuclease minus mutant Mma DNA polymerase, SEQ ID NO:23 (protein, listed as Methanococcus maripaludis, (1)..(784) exo_ L417P/Y418A/S420T mutant) MESLIDLDYNSDDLCIYLYLINSIIKEKDFKPYFYVNSTDKEQILEFLKDYEKKHKLDSEISKMIENIETVKKIVFDENYQEKELSKVTVKYPNNVKTVREILMEFERLYEYDIPFVRRYLIDNSVIPTSTWDFENNKKIDNKIPDFKTVSFAIAVYCNKEPNPKKDPIIMASFSSKDFNTVVSTKKFDHEKLEYVKDEKELIKRIIEILKEYDIIYTYNGDNFDFPYLKKRAESFGLELKLGKNDEKIKITKGGMNSKSYIPGRVHIDLYPIARRLLNLTKYRLENVTEALFDVKKVDVGHENIPKMWDNLDETLVEYSHQDAYYTQRIGEQFLPLEIMFSRVVNQSLYDINRMSSSQMVEYLLLKNSYKMGVIAPNRPSGKEYQKRIRSSYEGGYVKEPLKGIHEDIVSMDFLSPAPTIIMSHNLSPETIDCTCCSDEENGENEEILGHKFCKKSIGIIPKTLMDLINRRKKVKKVLREKAEKGEFDEEYQILDYEQRSIKVLANSHYGYLAFPMARWYSRDCAEITTHLGRQYIQKTIEEAENFGFKVIYADTDGFYSKWADDKEKLSKYELLEKTREFLKNINNTLPGEMELEFEGYFKRGIFVTKKKYALIDENEKITVKGLEVVRRDWSNVSKNTQKNVLNALLKEGSVENAKKVIQDTIKELKDGKVNNEDLLIHTQLTKRIEDYKTTAPHVEVAKKILKSGNRVNTGDVISYIITSGNKSISERAEILENAKNYDTNYYIENQILPPVIRLMEALGITKDELKDSKKQYTLHHFLK | incorporated 3′-O-azidomethyl-dCTP efficiently | greater than Mma exo- | at least two-fold | increased 3′-O-azidomethyl-dCTP incorporation
9° N exo-L408P/Y409A/S411T: 9° N DNA polymerase mutant, SEQ ID NO:6 (protein, Thermococcus sp. 9 degrees N DNAP mutant) MILDTDYITENGKPVIRVFKKENGEFKIEYDRTFEPYFYALLKDDSAIEDVKKVTAKRHGTVVKVKRAEKVQKKFLGRPIEVWKLYFNHPQDVPAIRDRIRAHPAVVDIYEYDIPFAKRYLIDKGLIPMEGDEELTMLAFAIATLYHEGEEFGTGPILMISYADGSEARVITWKKIDLPYVDVVSTEKEMIKRFLRVVREKDPDVLITYNGDNFDFAYLKKRCEELGIKFTLGRDGSEPKIQRMGDRFAVEVKGRIHFDLYPVIRRTINLPTYTLEAVYEAVFGKPKEKVYAEEIAQAWESGEGLERVARYSMEDAKVTYELGREFFPMEAQLSRLIGQSLWDVSRSSTGNLVEWFLLRKAYKRNELAPNKPDERELARRRGGYAGGYVKEPERGLWDNIVYLDFRSPAPTIIITHNVSPDTLNREGCKEYDVAPEVGHKFCKDFPGFIPSLLGDLLEERQKIKRKMKATVDPLEKKLLDYRQRAIKILANSFYGYYGYAKARWYCKECAESVTAWGREYIEMVIRELEEKFGFKVLYADTDGLHATIPGADAETVKKKAKEFLKYINPKLPGLLELEYEGFYVRGFFVTKKKYAVIDEEGKITTRGLEIVRRDWSEIAKETQARVLEAILKHGDVEEAVRIVKEVTEKLSKYEVPPEKLVIHEQITRDLRDYKATGPHVAVAKRLAARGVKIRPGTVISYIVLKGSGRIGDRAIPADEFDPTKHRYDAEYYIENQVLPAVERILKAFGYRKEDLRYQKTKQVGLGAWLKVKGKK | incorporated 3′-O-azidomethyl-dCTP efficiently | – | at least two-fold | increased 3′-O-azidomethyl-dCTP incorporation
